These results are taken from patent US20110237462A1 (FUJIFILM, published 2011).

The target of this assay is T1, MBP-VH(BGP) labeled with ALEXA FLUOR 555 together with MBP-VL(BGP) labeled with ALEXA FLUOR 647 (labeled with ALEXA FLUOR 647 (labeled residues not stated); labeled with ALEXA FLUOR 555 (labeled residues not stated)).
T1 construct: Two separate MBP-fused antibody fragments, covalently immobilized on a carboxymethyl dextran glass substrate; The MBP leader is part of the printed entries; also called fusion protein of anti-osteocalcin (BGP) VH-region polypeptide with MBP; fusion protein of anti-BGP VL-region polypeptide (antibody KTM219) with MBP
Briefly: FRET on immobilization substrates I and J.

B1: C-terminal heptapeptide fragment of BGP (RRFYGPY) (peptide)
peptide: RRFYGPY
notes: also called BGP heptapeptide; BGP heptapeptide (RRFYGPY)
Take B1: the binding result is “binds”.
